Assay results taken from publication PMC12033236.

Experiments:
GST-GS2 (OsGRF4) [1] = molecular target: T1, GST-GS2 (OsGRF4) (Oryza sativa, UniProt Q6ZIK5 1-394); assay: EMSA
T1 sequence: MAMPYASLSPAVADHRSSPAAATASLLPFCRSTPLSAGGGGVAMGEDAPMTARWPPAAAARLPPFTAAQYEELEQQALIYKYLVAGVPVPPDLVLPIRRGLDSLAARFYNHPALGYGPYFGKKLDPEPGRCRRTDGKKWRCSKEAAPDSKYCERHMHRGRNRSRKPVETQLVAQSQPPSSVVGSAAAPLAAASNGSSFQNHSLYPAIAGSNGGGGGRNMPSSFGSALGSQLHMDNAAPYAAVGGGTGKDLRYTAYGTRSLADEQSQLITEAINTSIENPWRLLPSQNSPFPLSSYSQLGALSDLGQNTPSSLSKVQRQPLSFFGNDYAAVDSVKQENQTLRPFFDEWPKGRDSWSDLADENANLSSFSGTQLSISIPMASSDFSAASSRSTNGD

GST-GS2 (OsGRF4) [2] = molecular target: T1, GST-GS2 (OsGRF4); assay: competition

Binder	binding result (GST-GS2 (OsGRF4) [1])	binding result (GST-GS2 (OsGRF4) [2])
SUG1 probe A (dsDNA) DNA 1: CGCACAGTCCACCCAAAGCCGTTGTTA DNA 2: TAACAACGGCTTTGGGTGGACTGTGCG	binds	
SUG1 probe A-m (dsDNA) DNA 1: CGCTACGTTCACCCAAAGCCGTTGTTA DNA 2: TAACAACGGCTTTGGGTGAACGTAGCG	no binding	
SUG1 unlabeled probe A (competitor) (dsDNA) DNA 1: CGCACAGTCCACCCAAAGCCGTTGTTA DNA 2: TAACAACGGCTTTGGGTGGACTGTGCG		binds
